# US20250177530A1, “MOLECULES THAT BIND TO ENPP1 POLYPEPTIDES” (UNIVERSITY OF PITTSBURGH - OF THE COMMONWEALTH SYSTEM OF …, priority 2022, published 2025)
# How the values were obtained:
# [1] = target: human ENPP1 on the cell surface (293T-ENPP1 cells, HepG2 cells) (human) (UniProt P22413); experiment: flow cytometry on 293T-ENPP1 cells, APC-A against SSC-A
# [2] = target: human ENPP1 on the cell surface (293T-ENPP1 cells, HepG2 cells) (human) (UniProt P22413); experiment: flow cytometry on HepG2 cells, APC-A against SSC-A
# Chain of human ENPP1 on the cell surface (293T-ENPP1 cells, HepG2 cells) (human) (P22413 whole entry): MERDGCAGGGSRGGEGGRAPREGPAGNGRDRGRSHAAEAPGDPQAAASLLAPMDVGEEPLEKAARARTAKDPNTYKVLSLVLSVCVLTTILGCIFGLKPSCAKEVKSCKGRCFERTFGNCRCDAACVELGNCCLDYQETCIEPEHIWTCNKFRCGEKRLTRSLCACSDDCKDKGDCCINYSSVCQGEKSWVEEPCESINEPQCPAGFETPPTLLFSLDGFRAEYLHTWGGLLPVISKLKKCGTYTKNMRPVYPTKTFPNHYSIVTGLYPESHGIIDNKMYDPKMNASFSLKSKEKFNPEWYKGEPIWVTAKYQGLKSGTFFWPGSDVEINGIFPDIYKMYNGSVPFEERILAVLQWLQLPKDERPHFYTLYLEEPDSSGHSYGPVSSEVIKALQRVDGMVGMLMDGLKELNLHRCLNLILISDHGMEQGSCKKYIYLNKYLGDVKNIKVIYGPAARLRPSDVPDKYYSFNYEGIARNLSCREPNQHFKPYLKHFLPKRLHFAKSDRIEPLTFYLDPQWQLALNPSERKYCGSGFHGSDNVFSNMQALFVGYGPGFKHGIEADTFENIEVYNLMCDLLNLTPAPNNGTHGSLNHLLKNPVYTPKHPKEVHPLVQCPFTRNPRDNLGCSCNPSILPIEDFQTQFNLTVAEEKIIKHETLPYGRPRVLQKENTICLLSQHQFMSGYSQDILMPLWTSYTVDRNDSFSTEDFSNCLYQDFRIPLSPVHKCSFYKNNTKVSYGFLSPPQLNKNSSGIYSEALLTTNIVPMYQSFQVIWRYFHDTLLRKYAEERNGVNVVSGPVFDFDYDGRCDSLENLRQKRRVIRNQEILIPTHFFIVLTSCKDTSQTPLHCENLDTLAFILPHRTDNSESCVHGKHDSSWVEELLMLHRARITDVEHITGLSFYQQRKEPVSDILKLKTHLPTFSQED
substance,measurement,setting,value
Isotype Ctrl (antibody),percent of cells in the APC-positive gate,[1],0.4%
same,percent of cells in the APC-positive gate,[2],0.4%
